Kd data for 2 substances are collected here from publication PMC11189624.

Test [1] concerns the target Melanophilin GTBM (Mus musculus) (UniProt Q91V27). The conditions noted are these: cited from earlier work.
Test [2] addresses Mlph-ABD labelled with ATTO 488 NHS Ester dye (mouse) (UniProt Q91V27). Briefly: MST; Monolith NT.115, 25 °C; Mlph-ABD labelled with ATTO 488 at 20 nM; two-fold dilution series (16) of Myo5a-MTD or Myo5a-MTDΔG from 50 uM; 50 mM Tris-HCl pH 7.8, 100 mM NaCl, 10 mM MgCl2, 0.05% Tween 20.

What is called Kd is a measure of binding affinity in units of concentration.

Myosin-5a GTD, sequence (Q99104 1469-1853): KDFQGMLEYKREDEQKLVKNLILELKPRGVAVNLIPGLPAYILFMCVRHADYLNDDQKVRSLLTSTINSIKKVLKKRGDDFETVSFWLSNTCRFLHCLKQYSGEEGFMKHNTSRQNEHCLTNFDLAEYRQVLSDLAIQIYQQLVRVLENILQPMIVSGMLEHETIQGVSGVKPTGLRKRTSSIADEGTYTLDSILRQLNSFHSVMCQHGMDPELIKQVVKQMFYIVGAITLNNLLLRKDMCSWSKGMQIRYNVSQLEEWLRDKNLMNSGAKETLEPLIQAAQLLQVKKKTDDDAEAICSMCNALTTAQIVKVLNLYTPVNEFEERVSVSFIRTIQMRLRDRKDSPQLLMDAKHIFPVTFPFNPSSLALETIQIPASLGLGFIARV
Melanophilin GTBM (Mus musculus), sequence (Q91V27 176-201): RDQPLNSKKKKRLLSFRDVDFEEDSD
Mlph-ABD labelled with ATTO 488 NHS Ester dye (mouse), sequence (Q91V27 401-590): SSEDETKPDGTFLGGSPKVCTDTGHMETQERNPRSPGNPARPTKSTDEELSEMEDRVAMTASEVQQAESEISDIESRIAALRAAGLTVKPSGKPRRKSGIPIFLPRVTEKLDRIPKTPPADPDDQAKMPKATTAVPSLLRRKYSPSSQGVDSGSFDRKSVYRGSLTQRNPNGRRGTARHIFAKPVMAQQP

As to Myosin-5a GTD (from UniProt Q99104), the Kd in test [1] was 1000 nM.

Take “Flag-Myo5a-MTD (residues 1106–1467), bacterial-expressed (domain or fragment)”: the dissociation constant Kd in test [2] stood at 562 nM.
